From article PMC12999518 (Nature Structural & Molecular Biology, 2026)

T1: Sea3 (yeast (endogenous, TB50 background), UniProt Q03897 1-1148)
T1 sequence (looked up): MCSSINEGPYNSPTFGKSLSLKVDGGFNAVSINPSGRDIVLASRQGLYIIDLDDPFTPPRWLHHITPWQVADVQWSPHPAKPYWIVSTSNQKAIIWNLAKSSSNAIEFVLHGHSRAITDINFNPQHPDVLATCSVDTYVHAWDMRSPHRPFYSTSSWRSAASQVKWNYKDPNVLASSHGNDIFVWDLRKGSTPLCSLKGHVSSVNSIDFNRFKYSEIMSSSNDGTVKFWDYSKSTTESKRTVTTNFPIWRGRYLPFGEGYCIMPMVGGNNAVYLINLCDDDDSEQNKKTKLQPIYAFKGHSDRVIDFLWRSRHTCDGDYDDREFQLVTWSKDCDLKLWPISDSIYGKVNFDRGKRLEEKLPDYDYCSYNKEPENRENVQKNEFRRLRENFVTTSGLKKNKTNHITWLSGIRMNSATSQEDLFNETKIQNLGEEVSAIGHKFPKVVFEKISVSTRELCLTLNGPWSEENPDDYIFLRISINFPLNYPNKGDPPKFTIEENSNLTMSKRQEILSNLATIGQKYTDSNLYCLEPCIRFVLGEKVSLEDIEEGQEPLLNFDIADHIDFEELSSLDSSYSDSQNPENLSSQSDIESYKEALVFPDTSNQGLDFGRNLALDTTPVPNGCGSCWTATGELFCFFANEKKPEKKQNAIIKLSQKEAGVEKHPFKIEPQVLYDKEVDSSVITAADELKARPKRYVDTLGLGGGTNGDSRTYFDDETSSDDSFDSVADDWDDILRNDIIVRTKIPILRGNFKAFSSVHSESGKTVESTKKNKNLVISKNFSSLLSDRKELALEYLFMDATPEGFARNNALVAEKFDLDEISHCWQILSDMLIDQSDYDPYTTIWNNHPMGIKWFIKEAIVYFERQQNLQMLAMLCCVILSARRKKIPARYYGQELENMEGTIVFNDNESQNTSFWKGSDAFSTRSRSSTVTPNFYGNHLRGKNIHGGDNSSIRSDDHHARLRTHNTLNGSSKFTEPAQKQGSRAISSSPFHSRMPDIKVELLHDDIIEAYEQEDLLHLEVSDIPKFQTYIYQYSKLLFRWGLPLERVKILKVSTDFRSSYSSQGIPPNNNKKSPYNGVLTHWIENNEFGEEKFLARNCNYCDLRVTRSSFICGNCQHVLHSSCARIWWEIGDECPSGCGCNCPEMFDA

B1: Gtr1 (natural protein, yeast, UniProt Q00582 1-310, looked up)
chain: MSSNNRKKLLLMGRSGSGKSSMRSIIFSNYSAFDTRRLGATIDVEHSHLRFLGNMTLNLWDCGGQDVFMENYFTKQKDHIFQMVQVLIHVFDVESTEVLKDIEIFAKALKQLRKYSPDAKIFVLLHKMDLVQLDKREELFQIMMKNLSETSSEFGFPNLIGFPTSIWDESLYKAWSQIVCSLIPNMSNHQSNLKKFKEIMNALEIILFERTTFLVICSSNGENSNENHDSSDNNNVLLDPKRFEKISNIMKNFKQSCTKLKSGFKTLILNNNIYVSELSSNMVCFIVLKDMNIPQELVLENIKKAKEFFQ
B2: Npr2 (natural protein, yeast (endogenous, TB50 background), UniProt P39923 1-615, looked up)
chain: MLSYFQGFVPIHTIFYSVFHPTEGSKIKYEFPPNNLKNHGINFNTFKNYIIPKPILCHKLITFKYGTYRIVCYPVTINSPIYARNFFSFNFVFVFPYDCETSPYEPAITRLGKMFKVLEEQNQLLSKSERDPVFFDLKVLENSTTTPSTAGPSSTPNPSSNTTPTHPTSEKDTKDMRSSRYSDLIKDLGLPQSAFSIQDLLMRIFQDLNNYSECLIPIDEGNAVDIKIFPLLRPPTTCVSLEDVPLSSVNLKKIIDVNWDPTMMSIVPYIDGLNSIAKISKLSNSDPGLVIECIRHLIYYKCVTLSDIFQFSNIYAPSSLIRNFLTDPLMASDCQSYVTFPEVSKISNLPLNKSLGSGDQDSPSFSVRRKSKSSSIPSNPDSRTTSFSSTSRVSQNSSLNSSFSSIYKDWRQSQTSCSSSNIHVINNRNRFLPTRSCLFDLYRSLSQGQTLKTWYESKYMILKENNIDIRRFITFGLEKRIIYRCYSFPVMINAGSREPKEMTPIITKDLVNNDKLLEKRNHNHLLSATGSRNTAQSGNLKPERPSKVSFEMQRVSSLATGKSTMPKLSDEEEGILEESIRNAETFDKICVLLSKPKLEVESYLNELGEFKVINS
B3: Gtr2 (natural protein, yeast, UniProt P53290 1-341, looked up)
chain: MSLEATDSKAMVLLMGVRRCGKSSICKVVFHNMQPLDTLYLESTSNPSLEHFSTLIDLAVMELPGQLNYFEPSYDSERLFKSVGALVYVIDSQDEYINAITNLAMIIEYAYKVNPSINIEVLIHKVDGLSEDFKVDAQRDIMQRTGEELLELGLDGVQVSFYLTSIFDHSIYEAFSRIVQKLIPELSFLENMLDNLIQHSKIEKAFLFDVNSKIYVSTDSNPVDIQMYEVCSEFIDVTIDLFDLYKAPVLRNSQKSSDKDNVINPRNELQNVSQLANGVIIYLRQMIRGLALVAIIRPNGTDMESCLTVADYNIDIFKKGLEDIWANARASQAKNSIEDDV

Tests used:
Assay in all cases: cryo-EM structure
[1] = target: B3
[2] = target: B2
[3] = target: T1, Sea3
[4] = target: Sea1 (yeast (endogenous, TB50 background), UniProt P47170 1-1584)
Chain of Sea1 (P47170 whole entry): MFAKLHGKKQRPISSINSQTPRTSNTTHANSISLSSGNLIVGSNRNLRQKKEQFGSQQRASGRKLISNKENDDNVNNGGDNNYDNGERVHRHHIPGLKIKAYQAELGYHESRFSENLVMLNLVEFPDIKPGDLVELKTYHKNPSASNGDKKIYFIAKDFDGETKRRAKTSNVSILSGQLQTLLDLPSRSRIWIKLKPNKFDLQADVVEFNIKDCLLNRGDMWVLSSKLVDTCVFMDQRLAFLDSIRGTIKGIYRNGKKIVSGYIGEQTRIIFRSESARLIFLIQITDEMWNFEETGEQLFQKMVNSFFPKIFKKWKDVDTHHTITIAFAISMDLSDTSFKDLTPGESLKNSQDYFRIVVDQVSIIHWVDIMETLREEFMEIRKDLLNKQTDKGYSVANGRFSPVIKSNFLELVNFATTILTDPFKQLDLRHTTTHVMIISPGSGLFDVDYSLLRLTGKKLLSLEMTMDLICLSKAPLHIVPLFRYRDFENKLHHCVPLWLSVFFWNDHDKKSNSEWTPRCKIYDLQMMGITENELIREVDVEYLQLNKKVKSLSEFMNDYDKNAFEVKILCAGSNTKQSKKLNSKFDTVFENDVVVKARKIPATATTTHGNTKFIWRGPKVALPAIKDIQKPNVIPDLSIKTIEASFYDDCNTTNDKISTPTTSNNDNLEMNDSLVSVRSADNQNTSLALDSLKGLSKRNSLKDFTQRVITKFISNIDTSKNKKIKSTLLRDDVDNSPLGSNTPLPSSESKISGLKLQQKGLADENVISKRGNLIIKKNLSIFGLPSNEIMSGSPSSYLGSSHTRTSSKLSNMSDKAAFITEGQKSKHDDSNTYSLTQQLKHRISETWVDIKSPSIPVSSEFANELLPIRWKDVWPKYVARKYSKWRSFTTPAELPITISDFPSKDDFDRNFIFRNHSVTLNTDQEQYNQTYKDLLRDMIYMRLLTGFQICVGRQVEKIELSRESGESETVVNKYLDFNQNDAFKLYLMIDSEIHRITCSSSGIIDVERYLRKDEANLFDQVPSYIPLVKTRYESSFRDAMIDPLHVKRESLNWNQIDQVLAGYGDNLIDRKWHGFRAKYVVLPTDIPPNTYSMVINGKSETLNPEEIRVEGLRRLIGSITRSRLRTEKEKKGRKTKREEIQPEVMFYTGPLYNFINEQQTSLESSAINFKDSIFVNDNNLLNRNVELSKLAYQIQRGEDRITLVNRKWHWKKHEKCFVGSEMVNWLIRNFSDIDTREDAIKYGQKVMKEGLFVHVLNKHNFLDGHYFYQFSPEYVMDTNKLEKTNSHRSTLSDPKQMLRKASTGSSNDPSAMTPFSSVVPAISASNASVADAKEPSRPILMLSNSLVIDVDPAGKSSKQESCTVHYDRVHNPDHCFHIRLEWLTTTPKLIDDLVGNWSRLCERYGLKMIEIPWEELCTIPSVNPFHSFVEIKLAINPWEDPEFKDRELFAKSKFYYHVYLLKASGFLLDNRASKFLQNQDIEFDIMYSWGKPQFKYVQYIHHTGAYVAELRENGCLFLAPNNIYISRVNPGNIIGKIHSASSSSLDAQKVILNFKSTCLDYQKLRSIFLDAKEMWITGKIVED

Binder: B1
binding result [1]: binds | binding result [2]: binds

Binder: B2
binding result [3]: binds

Binder: B3
binding result [4]: binds
